Experimental data from patent publication US11814435B2, “Therapeutic antibodies and their uses” (PFIZER INC., priority 2015, dated 2023).
Residue numbers refer to the chain shown, from its start.

T1: hBCMA (human BCMA) (Homo sapiens, UniProt Q02223)
T1 sequence (Q02223 1-184): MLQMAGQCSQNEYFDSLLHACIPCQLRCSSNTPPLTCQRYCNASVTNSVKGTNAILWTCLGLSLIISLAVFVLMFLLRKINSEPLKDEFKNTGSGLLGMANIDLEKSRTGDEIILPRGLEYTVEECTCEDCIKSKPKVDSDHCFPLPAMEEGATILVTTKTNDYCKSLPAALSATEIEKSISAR

B1: L3.PY/L1.AH/H3.YA: anti-BCMA antibody (antibody, V domains shown)
VH: EVQLLESGGGLVQPGGSLRLSCAASGFTFGSYAMTWVRQAPGKGLEWVSAISGSGGNTFYADSVKGRFTISRDNSKNTLYLQMNSLRAEDTAVYYCARVSPIYAGMDYWGQGTLVTVSS
VL: EIVLTQSPGTLSLSPGERATLSCRASQSVSAHYLAWYQQKPGQAPRLLIYGASSRATGIPDRFSGSGSGTDFTLTISRLEPEDFAVYYCQHYPYPPSFTFGQGTKVEIK
B2: L3.PY/L1.AH/H3.AE: anti-BCMA antibody (antibody, V domains shown)
VH: B1 VH with Y103A, G105E
VL: B1 VL
B3: L3.PY/L1.AH/H3.TAQ: anti-BCMA antibody (antibody, V domains shown)
VH: B1 VH with A97T, Y103A, G105Q
VL: B1 VL
B4: L3.PY/L1.FF/H2.QR: anti-BCMA antibody (antibody, V domains shown)
VH: B1 VH with S63Q, V64R, Y103A, A104S
VL: B1 VL with A31S, H32F, Y33F
B5: L3.PY/L1.FF/H2.DY: anti-BCMA antibody (antibody, V domains shown)
VH: B1 VH with S52D, G53Y, Y103A, A104S
VL: B1 VL with A31S, H32F, Y33F
B6: L3.PY/L1.FF/H2.YQ: anti-BCMA antibody (antibody, V domains shown)
VH: B1 VH with G53Y, S54Q, Y103A, A104S
VL: B1 VL with A31S, H32F, Y33F
B7: L3.PY/L1.FF/H2.LT: anti-BCMA antibody (antibody, V domains shown)
VH: B1 VH with G53L, S54T, Y103A, A104S
VL: B1 VL with A31S, H32F, Y33F
B8: L3.PY/L1.FF/H2.HA: anti-BCMA antibody (antibody, V domains shown)
VH: B1 VH with G53H, S54A, Y103A, A104S
VL: B1 VL with A31S, H32F, Y33F
B9: L3.PY/L1.FF/H2.QL: anti-BCMA antibody (antibody, V domains shown)
VH: B1 VH with S63Q, V64L, Y103A, A104S
VL: B1 VL with A31S, H32F, Y33F
B10: L3.PY/L1.FF/H3.YA: anti-BCMA antibody (antibody, V domains shown)
VH: B1 VH
VL: B1 VL with A31S, H32F, Y33F
B11: L3.PY/L1.FF/H3.AE: anti-BCMA antibody (antibody, V domains shown)
VH: B1 VH with Y103A, G105E
VL: B1 VL with A31S, H32F, Y33F
B12: L3.PY/L1.FF/H3.TAQ: anti-BCMA antibody (antibody, V domains shown)
VH: B1 VH with A97T, Y103A, G105Q
VL: B1 VL with A31S, H32F, Y33F
B13: L3.PY/L1.PH/H2.QR: anti-BCMA antibody (antibody, V domains shown)
VH: B1 VH with S63Q, V64R, Y103A, A104S
VL: B1 VL with A31P
B14: L3.PY/L1.PH/H2.HA: anti-BCMA antibody (antibody, V domains shown)
VH: B1 VH with G53H, S54A, Y103A, A104S
VL: B1 VL with A31P
B15: L3.PY/L1.PH/H3.AE: anti-BCMA antibody (antibody, V domains shown)
VH: B1 VH with Y103A, G105E
VL: B1 VL with A31P
B16: L3.PY/L1.PH/H3.TAQ: anti-BCMA antibody (antibody, V domains shown)
VH: B1 VH with A97T, Y103A, G105Q
VL: B1 VL with A31P
B17: L3.PY/L3.KY/H2.QR: anti-BCMA antibody (antibody, V domains shown)
VH: B1 VH with S63Q, V64R, Y103A, A104S
VL: B1 VL with A31S, H32S, Q90K, H91Y
B18: L3.PY/L3.KY/H2.DY: anti-BCMA antibody (antibody, V domains shown)
VH: B1 VH with S52D, G53Y, Y103A, A104S
VL: B1 VL with A31S, H32S, Q90K, H91Y
B19: L3.PY/L3.KY/H2.YQ: anti-BCMA antibody (antibody, V domains shown)
VH: B1 VH with G53Y, S54Q, Y103A, A104S
VL: B1 VL with A31S, H32S, Q90K, H91Y
B20: L3.PY/L3.KY/H2.LT: anti-BCMA antibody (antibody, V domains shown)
VH: B1 VH with G53L, S54T, Y103A, A104S
VL: B1 VL with A31S, H32S, Q90K, H91Y
B21: L3.PY/L3.KY/H2.HA: anti-BCMA antibody (antibody, V domains shown)
VH: B1 VH with G53H, S54A, Y103A, A104S
VL: B1 VL with A31S, H32S, Q90K, H91Y
B22: L3.PY/L3.KY/H2.QL: anti-BCMA antibody (antibody, V domains shown)
VH: B1 VH with S63Q, V64L, Y103A, A104S
VL: B1 VL with A31S, H32S, Q90K, H91Y

What was measured:
[1] = target: T1, hBCMA (human BCMA); assay: Kinetics and affinity of hBCMA/human IgG interactions by SPR (Bio-Rad Proteon XPR36); format: binding; details: huBCMA, 37° C.
Outline: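 First, antibodies are immobilized by amine coupling onto a GLC sensor chip at 25° C. Next, hBCMA is titrated from 0.08 to 50 nM in one cycle, each injection lasting two minutes, in BSA-supplemented HBS-T+ at 37° C. or 25° C. Finally, dissociation runs two hours before kinetic-titration fitting.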

[2] = tested on: cyBCMA; assay: Kinetics and affinity of cyBCMA/human IgG interactions by SPR (Bio-Rad Proteon XPR36); format: binding, cynomolgus; details: 37° C.

Row | Molecule | ka (1/Ms) huBCMA @ 37° C. [1] [M⁻¹ s⁻¹] | kd (1/s) huBCMA @37° C. [1] [s⁻¹] | ka (1/Ms) cyBCMA @ 37° C. [2] [M⁻¹ s⁻¹] | kd (1/s) cyBCMA @37° C. [2] [s⁻¹]
1 | B1 | 3e+06 | 0.0015 | 2.37e+06 | 0.00526
2 | B2 | 3.32e+06 | 0.00173 | 2.25e+06 | 0.00356
3 | B3 | 3.27e+06 | 0.00119 | 2.28e+06 | 0.00302
4 | B4 | 3.47e+06 | 0.00177 | 2.55e+06 | 0.00421
5 | B5 | 4.14e+06 | 0.00271 | 2.66e+06 | 0.005
6 | B6 | 3.32e+06 | 0.00152 | 2.19e+06 | 0.00326
7 | B7 | 3.3e+06 | 0.00167 | 2.19e+06 | 0.00341
8 | B8 | 3.49e+06 | 0.00219 | 2.33e+06 | 0.00417
9 | B9 | 3.48e+06 | 0.0014 | 2.36e+06 | 0.00449
10 | B10 | 3.5e+06 | 0.0018 | 2.46e+06 | 0.00416
11 | B11 | 3.82e+06 | 0.00263 | 2.85e+06 | 0.00501
12 | B12 | 3.52e+06 | 0.00189 | 2.32e+06 | 0.00376
13 | B13 | 3.69e+06 | 0.00236 | 2.42e+06 | 0.00436
14 | B14 | 2.37e+06 | 0.00116 | 1.61e+06 | 0.00553
15 | B15 | 3.68e+06 | 0.00134 | 2.61e+06 | 0.00202
16 | B16 | 3.58e+06 | 0.00213 | 2.51e+06 | 0.0032
17 | B17 | 2.95e+06 | 0.00099 | 2.05e+06 | 0.00774
18 | B18 | 3.19e+06 | 0.000642 | 1.96e+06 | 0.00243
19 | B19 | 2.14e+06 | 0.00165 | 1.27e+06 | 0.00258
20 | B20 | 2.92e+06 | 0.000906 | 1.82e+06 | 0.00232
21 | B21 | 3.29e+06 | 0.00163 | 2.28e+06 | 0.00318
22 | B22 | 3.65e+06 | 0.00208 | 2.75e+06 | 0.00409
